Laboratory results taken from patent US20260022175A1 (Chugai, published 2026).

T1: hFcγRIIaH on hFcγRIIaH-expressing Jurkat cells (human, UniProt P12318 34-317)
T1 sequence (looked up): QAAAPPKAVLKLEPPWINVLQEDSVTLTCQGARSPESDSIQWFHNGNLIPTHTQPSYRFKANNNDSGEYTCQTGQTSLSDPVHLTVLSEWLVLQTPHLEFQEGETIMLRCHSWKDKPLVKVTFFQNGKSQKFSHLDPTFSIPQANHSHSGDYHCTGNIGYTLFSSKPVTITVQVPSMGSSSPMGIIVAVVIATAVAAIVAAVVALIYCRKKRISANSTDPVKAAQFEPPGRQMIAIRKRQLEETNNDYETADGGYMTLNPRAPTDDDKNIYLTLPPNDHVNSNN

T2: human FcγRIIa H extracellular domain (human, UniProt P12318 34-217)
T2 construct: extracellular domain; also called hFcγR IIa H
T2 sequence (looked up): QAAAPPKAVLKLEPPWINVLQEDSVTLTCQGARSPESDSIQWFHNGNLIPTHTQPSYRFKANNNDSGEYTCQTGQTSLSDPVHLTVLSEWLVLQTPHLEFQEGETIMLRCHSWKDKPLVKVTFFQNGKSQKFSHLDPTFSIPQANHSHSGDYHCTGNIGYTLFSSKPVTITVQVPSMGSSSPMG

T3: human FcγRIIb extracellular domain (human, UniProt P31994 43-217)
T3 construct: extracellular domain; also called hFcγR IIb
T3 sequence (looked up): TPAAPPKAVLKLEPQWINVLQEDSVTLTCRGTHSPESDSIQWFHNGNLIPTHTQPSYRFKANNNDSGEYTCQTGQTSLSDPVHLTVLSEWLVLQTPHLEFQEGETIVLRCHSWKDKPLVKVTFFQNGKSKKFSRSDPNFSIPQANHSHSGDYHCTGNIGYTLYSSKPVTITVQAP

T4: human FcγRIIa R extracellular domain (human, UniProt P12318 34-217)
T4 construct: extracellular domain; also called hFcγR IIa R
T4 sequence (looked up): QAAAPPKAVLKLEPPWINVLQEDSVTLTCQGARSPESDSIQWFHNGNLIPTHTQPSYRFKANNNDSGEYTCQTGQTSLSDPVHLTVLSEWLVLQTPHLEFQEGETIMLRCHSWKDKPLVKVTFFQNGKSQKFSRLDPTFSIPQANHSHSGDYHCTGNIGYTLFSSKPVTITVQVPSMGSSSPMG


Key:
[1] = target: T1, hFcγRIIaH on hFcγRIIaH-expressing …; assay: cell-based or functional assay
[2] = target: T2, human FcγRIIa H extracellular domain; assay: SPR Biacore 8K+; KD of G1d divided by KD of this antibody;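 further: antibodies captured on an anti-Fab-kappa streptavidin chip, soluble FcγR ectodomains flowed over, KD by steady-state fit for FcγRIIb and Langmuir kinetic model for the other receptors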
[3] = target: T5, human FcγRIa extracellular domain (human, UniProt P12314 16-292); assay: as above
T5 construct: extracellular domain; also called hFcγR Ia; hFcγRIa
T5 sequence (P12314 16-292): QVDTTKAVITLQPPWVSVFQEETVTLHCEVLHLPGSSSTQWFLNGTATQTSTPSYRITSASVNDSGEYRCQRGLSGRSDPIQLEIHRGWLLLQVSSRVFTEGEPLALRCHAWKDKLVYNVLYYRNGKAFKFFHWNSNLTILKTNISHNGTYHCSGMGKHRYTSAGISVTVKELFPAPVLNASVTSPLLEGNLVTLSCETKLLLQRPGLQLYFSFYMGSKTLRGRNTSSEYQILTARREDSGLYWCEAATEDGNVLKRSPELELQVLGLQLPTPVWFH

[4] = target: T3, human FcγRIIb extracellular domain; assay: as above
[5] = target: T4, human FcγRIIa R extracellular domain; assay: as above
[6] = target: T6, human FcγRIIIa V extracellular domain (human, UniProt P08637 17-208); assay: as above
T6 construct: extracellular domain; also called hFcγR IIIa V
T6 sequence (P08637 17-208 F176V limits assumed): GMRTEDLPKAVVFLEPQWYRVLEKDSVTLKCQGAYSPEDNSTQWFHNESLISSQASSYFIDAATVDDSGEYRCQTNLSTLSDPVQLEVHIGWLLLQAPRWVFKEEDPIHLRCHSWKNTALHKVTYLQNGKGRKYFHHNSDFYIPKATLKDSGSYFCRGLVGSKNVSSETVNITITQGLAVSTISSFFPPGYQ

[7] = target: T7, human FcγRIIIa F extracellular domain (human, UniProt P08637 17-208); assay: as above
T7 construct: extracellular domain; also called hFcγR IIIa F
T7 sequence (P08637 17-208): as the sequence (P08637 17-208 F176V limits assumed) above, with V160F counted along it

[8] = target: T3, human FcγRIIb extracellular domain; assay: SPR Biacore 8K+, antibody captured, FcγR as analyte, steady state affinity model
[9] = target: hFcγRIIIaV on hFcγRIIIaV-expressing Jurkat cells (human, UniProt P08637 17-254); assay: cell-based or functional assay
Chain of hFcγRIIIaV on hFcγRIIIaV-expressing Jurkat cells (P08637 17-254, form in doubt): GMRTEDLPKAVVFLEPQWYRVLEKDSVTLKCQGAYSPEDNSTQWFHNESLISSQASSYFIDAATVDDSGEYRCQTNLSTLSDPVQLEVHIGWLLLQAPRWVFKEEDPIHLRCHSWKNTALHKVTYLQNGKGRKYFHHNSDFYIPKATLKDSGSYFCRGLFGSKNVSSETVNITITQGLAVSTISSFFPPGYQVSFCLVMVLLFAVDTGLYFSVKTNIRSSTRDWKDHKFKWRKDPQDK

[10] = target: T2, human FcγRIIa H extracellular domain; assay: SPR Biacore 8K+; KD for FcγRIIb divided by KD for this FcγR;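 further: antibodies captured on an anti-human Fab kappa SA chip with soluble human FcγR ectodomains flowed over, FcγRIIb KD from steady-state fit, other FcγR KD from Langmuir model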
[11] = target: T4, human FcγRIIa R extracellular domain; assay: as above
[12] = target: T6, human FcγRIIIa V extracellular domain; assay: as above
[13] = target: T7, human FcγRIIIa F extracellular domain; assay: as above
[14] = target: T2, human FcγRIIa H extracellular domain; assay: SPR Biacore 8K+, antibody captured, FcγR as analyte, 1:1 Langmuir model;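 further: antibodies captured on a streptavidin chip through a biotinylated anti-human Fab kappa reagent, with FcγR extracellular domains injected in pH 7.4 phosphate buffer at 25 °C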
[15] = target: T5, human FcγRIa extracellular domain; assay: as above
[16] = target: T4, human FcγRIIa R extracellular domain; assay: as above
[17] = target: T6, human FcγRIIIa V extracellular domain; assay: as above
[18] = target: T7, human FcγRIIIa F extracellular domain; assay: as above

Row | EC50 value (hFcγRIIaH ADCP Reporter Bioassay, Hepa1-6/hEREG target cells) [1] | Relative value to KD between G1d and hFcgRs [2] | Relative value to KD between G1d and hFcgRs [3] | Relative value to KD between G1d and hFcgRs [4] | Relative value to KD between G1d and hFcgRs [5] | Relative value to KD between G1d and hFcgRs [6] | Relative value to KD between G1d and hFcgRs [7] | Kd [8] | EC50 value (hFcγRIIIaV ADCC Reporter Bioassay, Hepa1-6/hEREG target cells) [9] | A/I ratio (KD for FcγRIIb divided by KD for each FcγR) [10] | A/I ratio (KD for FcγRIIb divided by KD for each FcγR) [11] | A/I ratio (KD for FcγRIIb divided by KD for each FcγR) [12] | A/I ratio (KD for FcγRIIb divided by KD for each FcγR) [13] | Kd [14] | Kd [15] | Kd [16] | Kd [17] | Kd [18] | Binder
1 | 0.0432 µg/mL | 6.3 | 2.9 | 0.9 | 3.2 | 462 | 2520 | 11700 nM | 0.000789 µg/mL | 65.2 | 22.5 | 15000 | 9940 | 179 nM | 0.0305 nM | 518 nM | 0.775 nM | 1.17 nM | H240-Kn456/L73-k0//H240-Hl446/L73-k0 (antibody, human IgG1, kappa, also called EGL-ART4; ART4) heavy 1: QDQLVQSGAEVKKPGASVKVSCKASGFNIKDTYIQWVRQAPGQGLEWMGRIDPLRKQTKYREKFEGRVTITADTSTNTAYMELSSLRSEDTAVYYCVRSGREFDYWGQGTLVTVSSASTKGPSVFPLAPSSKSTSGGTAALGCLVKDYFPEPVTVSWNSGALTSGVHTFPAVLQSSGLYSLSSVVTVPSSSLGTQTYICNVNHKPSNTKVDKKVEPKSCDKTHTCPPCPAPEFQWGPMVFLFPPKPKDVLMISRTPEVTCVVVDVSDEEPEVKFNWYVDGVEVHNAKTKPREEQYNATYRVVSVLPVLHQDWLNGKEYKCKVSNKALPMPEEKTISKAKGQPREPQVCTLPPSRDELTKNQVSLWCLVKGFYPSDIAVEWESNGQPENNYKTTPPVLDSDGSFFLYSKLTVDKSRWQQGNVFSCSVMHEALHNHYTQKSLSLSP heavy 2: QDQLVQSGAEVKKPGASVKVSCKASGFNIKDTYIQWVRQAPGQGLEWMGRIDPLRKQTKYREKFEGRVTITADTSTNTAYMELSSLRSEDTAVYYCVRSGREFDYWGQGTLVTVSSASTKGPSVFPLAPSSKSTSGGTAALGCLVKDYFPEPVTVSWNSGALTSGVHTFPAVLQSSGLYSLSSVVTVPSSSLGTQTYICNVNHKPSNTKVDKKVEPKSCDKTHTCPPCPAPELLAGPSVFLFPPKPKDVLMISRTPEVTCVVVDVSHEEPEVKFNWYVDGVEVHNAKTKPREEQYNATYRVVSVLPVLHQDWLNGKEYKCKVSNDALPMPEEETISKAKGQPREPQVYTLPPSRCELTKNQVSLSCAVKGFYPSDIAVEWESNGQPENNYKTTPPVLDSDGSFFLVSKLTVDKSRWQQGNVFSCSVMHEALHNHYTQKSLSLSP light: DIQMTQSPSSLSASVGDRVTITCRASQDIHKYIAWYQQKPGQAPRLLIQYTSTLQPGVPSRFSGSGSGTDYTFTISSLQPEDIATYYCLQYEQLRTFGGGTKVEIKRTVAAPSVFIFPPSDEQLKSGTASVVCLLNNFYPREAKVQWKVDNALQSGNSQESVTEQDSKDSTYSLSSTLTLSKADYEKHKVYACEVTHQGLSSPVTKSFNRGEC
2 | 0.0192 µg/mL | 118 | 1.2 | 3.4 | 24.1 | 322 | 987 | 2920 nM | 0.0015 µg/mL | 307 | 42.4 | 2630 | 976 | 9.52 nM | 0.0737 nM | 68.9 nM | 1.11 nM | 3 nM | H240-Kn462/L73-k0//H240-Hl445/L73-k0 (antibody, human IgG1, kappa, also called EGL-ART6; ART6) heavy 1: QDQLVQSGAEVKKPGASVKVSCKASGFNIKDTYIQWVRQAPGQGLEWMGRIDPLRKQTKYREKFEGRVTITADTSTNTAYMELSSLRSEDTAVYYCVRSGREFDYWGQGTLVTVSSASTKGPSVFPLAPSSKSTSGGTAALGCLVKDYFPEPVTVSWNSGALTSGVHTFPAVLQSSGLYSLSSVVTVPSSSLGTQTYICNVNHKPSNTKVDKKVEPKSCDKTHTCPPCPAPEFQWGPMVFLFPPKPKDVLMISRTPEVTCVVVDVSDEEPEVKFNWYVDGVEVHNAKTKPREEQYNATYRVVSVLPVLHQDWLNGKEYKCKVSNDALPAPIEKTISKAKGQPREPQVCTLPPSRDELTKNQVSLWCLVKGFYPSDIAVEWESNGQPENNYKTTPPVLDSDGSFFLYSKLTVDKSRWQQGNVFSCSVMHEALHNHYTQKSLSLSP heavy 2: QDQLVQSGAEVKKPGASVKVSCKASGFNIKDTYIQWVRQAPGQGLEWMGRIDPLRKQTKYREKFEGRVTITADTSTNTAYMELSSLRSEDTAVYYCVRSGREFDYWGQGTLVTVSSASTKGPSVFPLAPSSKSTSGGTAALGCLVKDYFPEPVTVSWNSGALTSGVHTFPAVLQSSGLYSLSSVVTVPSSSLGTQTYICNVNHKPSNTKVDKKVEPKSCDKTHTCPPCPAPELLAGPSVFLFPPKPKDVLMISRTPEVTCVVVDVSHEEPEVKFNWYVDGVEVHNAKTKPREEQYNATYRVVSVLPVLHQDWLNGKEYKCKVSNDALPKPDEETISKAKGQPREPQVYTLPPSRCELTKNQVSLSCAVKGFYPSDIAVEWESNGQPENNYKTTPPVLDSDGSFFLVSKLTVDKSRWQQGNVFSCSVMHEALHNHYTQKSLSLSP light: DIQMTQSPSSLSASVGDRVTITCRASQDIHKYIAWYQQKPGQAPRLLIQYTSTLQPGVPSRFSGSGSGTDYTFTISSLQPEDIATYYCLQYEQLRTFGGGTKVEIKRTVAAPSVFIFPPSDEQLKSGTASVVCLLNNFYPREAKVQWKVDNALQSGNSQESVTEQDSKDSTYSLSSTLTLSKADYEKHKVYACEVTHQGLSSPVTKSFNRGEC
